Target: murine GM-CSF receptor (murine) (UniProt Q00941)
Assay: cell-based or functional assay

Chain of UniProt Q00941 (Q00941 30-388, chain 1 of 2): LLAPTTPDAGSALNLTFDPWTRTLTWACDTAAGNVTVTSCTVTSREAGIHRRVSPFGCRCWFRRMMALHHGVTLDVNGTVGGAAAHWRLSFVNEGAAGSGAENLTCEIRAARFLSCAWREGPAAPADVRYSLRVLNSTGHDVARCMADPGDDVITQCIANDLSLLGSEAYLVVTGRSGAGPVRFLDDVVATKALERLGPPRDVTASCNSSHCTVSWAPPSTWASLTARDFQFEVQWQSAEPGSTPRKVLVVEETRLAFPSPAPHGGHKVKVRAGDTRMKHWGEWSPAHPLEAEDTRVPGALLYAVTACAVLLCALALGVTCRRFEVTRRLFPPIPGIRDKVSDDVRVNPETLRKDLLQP
Chain of UniProt Q00941 (P26955 23-896, chain 2 of 2, further chain): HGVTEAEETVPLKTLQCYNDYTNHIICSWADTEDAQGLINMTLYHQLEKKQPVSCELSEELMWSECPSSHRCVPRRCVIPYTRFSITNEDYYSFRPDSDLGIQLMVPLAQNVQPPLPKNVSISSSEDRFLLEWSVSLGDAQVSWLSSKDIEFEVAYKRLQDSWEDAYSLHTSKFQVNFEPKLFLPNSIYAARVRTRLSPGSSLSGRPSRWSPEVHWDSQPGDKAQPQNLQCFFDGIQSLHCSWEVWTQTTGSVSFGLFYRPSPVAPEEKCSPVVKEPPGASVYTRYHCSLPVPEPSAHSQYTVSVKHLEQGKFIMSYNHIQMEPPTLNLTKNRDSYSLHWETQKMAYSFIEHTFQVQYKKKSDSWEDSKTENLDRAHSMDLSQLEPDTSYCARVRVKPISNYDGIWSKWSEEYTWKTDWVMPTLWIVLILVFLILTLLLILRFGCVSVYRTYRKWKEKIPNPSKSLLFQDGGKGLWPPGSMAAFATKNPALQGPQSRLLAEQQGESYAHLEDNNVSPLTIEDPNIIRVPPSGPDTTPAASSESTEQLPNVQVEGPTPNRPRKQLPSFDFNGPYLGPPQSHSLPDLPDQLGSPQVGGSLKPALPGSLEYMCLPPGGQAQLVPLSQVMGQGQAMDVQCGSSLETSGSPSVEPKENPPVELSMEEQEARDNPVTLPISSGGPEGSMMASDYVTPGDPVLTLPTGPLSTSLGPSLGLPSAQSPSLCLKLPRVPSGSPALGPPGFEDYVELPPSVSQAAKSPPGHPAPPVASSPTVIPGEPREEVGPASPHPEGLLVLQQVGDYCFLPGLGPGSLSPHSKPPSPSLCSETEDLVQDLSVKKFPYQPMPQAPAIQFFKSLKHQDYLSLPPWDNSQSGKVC

Work on “murine GM-CSF fused to the S. cerevesiae Gas1 GPI modification signal sequence (from UniProt P01587 18-141; P22146 474-559) (other; the values are: proliferation increase vs soluble GM-CSF)” yielded a proliferation of FDC-P1 cells (Biotrak BrdU cell proliferation ELISA) of 25%.
